From US20210063414A1, “METHODS FOR PREVENTING AND/OR TREATING BONE LOSS CONDITIONS BY MODULATING IRISIN” (Dana-Farber Cancer Institute, Inc., priority 2018, published 2021)

Key:
Assay in all cases: Crosslinking/co-immunoprecipitation/mass spectrometry (TMT quantitative proteomics) to identify irisin receptors
Type in all cases: binding
[1] = target: T1, MLO-Y4 cell surface proteins (Mus musculus, UniProt Q9Z138); conditions: co-precipitated protein Ror2 (ROR2_MOUSE)
T1 construct: endogenous in cells; host or cells: MLO-Y4
In short: (§1)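 Mouse MLO-Y4 cells were switched to serum-free FreeStyle medium for 4 h, chilled, then exposed to 10 nM His-tagged irisin (or adipsin as control) for 20 min. Cells were crosslinked with 1.5 mM DTSSP (30 min, ice), and bound proteins were pulled down on Ni-NTA and eluted with 250 mM imidazole. Eluates were separated by SDS-PAGE, trypsin-digested in gel, TMT 6-plex labelled and quantified by MS3-based LC-MS/MS on an Orbitrap Fusion Lumos.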

[2] = target: T2, MLO-Y4 cell surface proteins (Mus musculus, UniProt Q8K221); conditions: co-precipitated protein Arfip2 (ARFP2_MOUSE)
T2 construct: endogenous in cells; host or cells: MLO-Y4
T2 sequence (Q8K221 1-341): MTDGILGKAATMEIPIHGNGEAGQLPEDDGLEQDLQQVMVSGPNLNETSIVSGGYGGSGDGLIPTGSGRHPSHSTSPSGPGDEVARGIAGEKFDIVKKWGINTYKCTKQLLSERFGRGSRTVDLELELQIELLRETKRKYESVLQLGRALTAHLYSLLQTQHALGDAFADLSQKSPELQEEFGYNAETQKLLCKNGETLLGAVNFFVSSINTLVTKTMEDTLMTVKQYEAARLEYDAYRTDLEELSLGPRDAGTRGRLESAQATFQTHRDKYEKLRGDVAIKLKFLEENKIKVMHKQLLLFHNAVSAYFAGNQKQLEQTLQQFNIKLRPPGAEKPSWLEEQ
In short: as §1

[3] = target: T3, MLO-Y4 cell surface proteins (Mus musculus, UniProt C0HKE1); conditions: co-precipitated protein Hist1h2ab (H2A1_MOUSE)
T3 construct: endogenous in cells; host or cells: MLO-Y4
In short: as §1

[4] = target: T4, MLO-Y4 cell surface proteins (Mus musculus, UniProt Q6ZQ93); conditions: co-precipitated protein Usp34 (UBP34_MOUSE)
T4 construct: endogenous in cells; host or cells: MLO-Y4
In short: as §1

[5] = target: T5, MLO-Y4 cell surface proteins (Mus musculus, UniProt P56567); conditions: co-precipitated protein Csta (CYTA_MOUSE)
T5 construct: endogenous in cells; host or cells: MLO-Y4
T5 sequence (P56567 1-97): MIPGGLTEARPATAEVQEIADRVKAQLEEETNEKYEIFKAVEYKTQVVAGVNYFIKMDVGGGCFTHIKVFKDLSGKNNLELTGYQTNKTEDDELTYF
In short: as §1

[6] = target: T6, MLO-Y4 cell surface proteins (Mus musculus, UniProt Q8VHN7); conditions: co-precipitated protein Gpr98 (GPR98_MOUSE)
T6 construct: endogenous in cells; host or cells: MLO-Y4
In short: as §1

[7] = target: T7, MLO-Y4 cell surface proteins (Mus musculus, UniProt Q9JHS4); conditions: co-precipitated protein Clpx (CLPX_MOUSE)
T7 construct: endogenous in cells; host or cells: MLO-Y4
In short: as §1

T7 sequence (Q9JHS4 57-634): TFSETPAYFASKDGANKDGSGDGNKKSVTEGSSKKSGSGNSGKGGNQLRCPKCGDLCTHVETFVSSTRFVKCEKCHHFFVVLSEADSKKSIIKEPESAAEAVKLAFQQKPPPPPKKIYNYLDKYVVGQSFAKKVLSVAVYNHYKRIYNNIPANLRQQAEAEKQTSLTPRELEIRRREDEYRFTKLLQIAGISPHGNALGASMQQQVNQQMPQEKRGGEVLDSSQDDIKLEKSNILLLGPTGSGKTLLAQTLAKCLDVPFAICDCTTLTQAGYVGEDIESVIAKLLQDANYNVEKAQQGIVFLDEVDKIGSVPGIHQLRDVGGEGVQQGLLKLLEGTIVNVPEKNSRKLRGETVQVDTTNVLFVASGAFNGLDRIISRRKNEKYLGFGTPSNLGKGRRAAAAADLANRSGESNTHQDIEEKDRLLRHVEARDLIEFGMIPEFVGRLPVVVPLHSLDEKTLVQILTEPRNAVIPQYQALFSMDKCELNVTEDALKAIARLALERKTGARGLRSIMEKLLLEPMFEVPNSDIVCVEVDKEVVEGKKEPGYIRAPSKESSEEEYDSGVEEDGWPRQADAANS
T1 sequence (Q9Z138 34-944): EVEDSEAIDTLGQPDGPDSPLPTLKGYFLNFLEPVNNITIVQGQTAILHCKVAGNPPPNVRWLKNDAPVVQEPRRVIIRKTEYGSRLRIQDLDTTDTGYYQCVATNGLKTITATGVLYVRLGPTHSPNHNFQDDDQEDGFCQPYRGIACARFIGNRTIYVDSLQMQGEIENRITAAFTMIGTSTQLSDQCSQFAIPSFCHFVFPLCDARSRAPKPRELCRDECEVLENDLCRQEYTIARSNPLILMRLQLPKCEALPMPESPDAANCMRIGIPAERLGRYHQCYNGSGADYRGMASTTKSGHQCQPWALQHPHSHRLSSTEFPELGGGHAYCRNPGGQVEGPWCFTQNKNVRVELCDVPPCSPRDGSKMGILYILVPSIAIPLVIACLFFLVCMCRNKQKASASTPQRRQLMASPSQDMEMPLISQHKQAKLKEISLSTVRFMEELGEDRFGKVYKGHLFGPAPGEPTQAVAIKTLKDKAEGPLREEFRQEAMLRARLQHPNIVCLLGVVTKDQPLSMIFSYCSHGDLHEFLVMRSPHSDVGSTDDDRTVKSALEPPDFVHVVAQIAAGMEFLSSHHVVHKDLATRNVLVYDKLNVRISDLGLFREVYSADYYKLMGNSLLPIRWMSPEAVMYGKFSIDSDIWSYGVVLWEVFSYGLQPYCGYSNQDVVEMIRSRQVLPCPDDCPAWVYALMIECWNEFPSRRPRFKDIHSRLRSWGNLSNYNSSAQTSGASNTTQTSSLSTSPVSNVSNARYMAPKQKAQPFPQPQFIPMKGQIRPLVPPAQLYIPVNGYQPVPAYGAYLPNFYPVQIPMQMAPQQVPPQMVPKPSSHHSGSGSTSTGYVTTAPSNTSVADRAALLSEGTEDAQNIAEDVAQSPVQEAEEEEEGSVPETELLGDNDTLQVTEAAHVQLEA
T4 sequence (Q6ZQ93 whole entry): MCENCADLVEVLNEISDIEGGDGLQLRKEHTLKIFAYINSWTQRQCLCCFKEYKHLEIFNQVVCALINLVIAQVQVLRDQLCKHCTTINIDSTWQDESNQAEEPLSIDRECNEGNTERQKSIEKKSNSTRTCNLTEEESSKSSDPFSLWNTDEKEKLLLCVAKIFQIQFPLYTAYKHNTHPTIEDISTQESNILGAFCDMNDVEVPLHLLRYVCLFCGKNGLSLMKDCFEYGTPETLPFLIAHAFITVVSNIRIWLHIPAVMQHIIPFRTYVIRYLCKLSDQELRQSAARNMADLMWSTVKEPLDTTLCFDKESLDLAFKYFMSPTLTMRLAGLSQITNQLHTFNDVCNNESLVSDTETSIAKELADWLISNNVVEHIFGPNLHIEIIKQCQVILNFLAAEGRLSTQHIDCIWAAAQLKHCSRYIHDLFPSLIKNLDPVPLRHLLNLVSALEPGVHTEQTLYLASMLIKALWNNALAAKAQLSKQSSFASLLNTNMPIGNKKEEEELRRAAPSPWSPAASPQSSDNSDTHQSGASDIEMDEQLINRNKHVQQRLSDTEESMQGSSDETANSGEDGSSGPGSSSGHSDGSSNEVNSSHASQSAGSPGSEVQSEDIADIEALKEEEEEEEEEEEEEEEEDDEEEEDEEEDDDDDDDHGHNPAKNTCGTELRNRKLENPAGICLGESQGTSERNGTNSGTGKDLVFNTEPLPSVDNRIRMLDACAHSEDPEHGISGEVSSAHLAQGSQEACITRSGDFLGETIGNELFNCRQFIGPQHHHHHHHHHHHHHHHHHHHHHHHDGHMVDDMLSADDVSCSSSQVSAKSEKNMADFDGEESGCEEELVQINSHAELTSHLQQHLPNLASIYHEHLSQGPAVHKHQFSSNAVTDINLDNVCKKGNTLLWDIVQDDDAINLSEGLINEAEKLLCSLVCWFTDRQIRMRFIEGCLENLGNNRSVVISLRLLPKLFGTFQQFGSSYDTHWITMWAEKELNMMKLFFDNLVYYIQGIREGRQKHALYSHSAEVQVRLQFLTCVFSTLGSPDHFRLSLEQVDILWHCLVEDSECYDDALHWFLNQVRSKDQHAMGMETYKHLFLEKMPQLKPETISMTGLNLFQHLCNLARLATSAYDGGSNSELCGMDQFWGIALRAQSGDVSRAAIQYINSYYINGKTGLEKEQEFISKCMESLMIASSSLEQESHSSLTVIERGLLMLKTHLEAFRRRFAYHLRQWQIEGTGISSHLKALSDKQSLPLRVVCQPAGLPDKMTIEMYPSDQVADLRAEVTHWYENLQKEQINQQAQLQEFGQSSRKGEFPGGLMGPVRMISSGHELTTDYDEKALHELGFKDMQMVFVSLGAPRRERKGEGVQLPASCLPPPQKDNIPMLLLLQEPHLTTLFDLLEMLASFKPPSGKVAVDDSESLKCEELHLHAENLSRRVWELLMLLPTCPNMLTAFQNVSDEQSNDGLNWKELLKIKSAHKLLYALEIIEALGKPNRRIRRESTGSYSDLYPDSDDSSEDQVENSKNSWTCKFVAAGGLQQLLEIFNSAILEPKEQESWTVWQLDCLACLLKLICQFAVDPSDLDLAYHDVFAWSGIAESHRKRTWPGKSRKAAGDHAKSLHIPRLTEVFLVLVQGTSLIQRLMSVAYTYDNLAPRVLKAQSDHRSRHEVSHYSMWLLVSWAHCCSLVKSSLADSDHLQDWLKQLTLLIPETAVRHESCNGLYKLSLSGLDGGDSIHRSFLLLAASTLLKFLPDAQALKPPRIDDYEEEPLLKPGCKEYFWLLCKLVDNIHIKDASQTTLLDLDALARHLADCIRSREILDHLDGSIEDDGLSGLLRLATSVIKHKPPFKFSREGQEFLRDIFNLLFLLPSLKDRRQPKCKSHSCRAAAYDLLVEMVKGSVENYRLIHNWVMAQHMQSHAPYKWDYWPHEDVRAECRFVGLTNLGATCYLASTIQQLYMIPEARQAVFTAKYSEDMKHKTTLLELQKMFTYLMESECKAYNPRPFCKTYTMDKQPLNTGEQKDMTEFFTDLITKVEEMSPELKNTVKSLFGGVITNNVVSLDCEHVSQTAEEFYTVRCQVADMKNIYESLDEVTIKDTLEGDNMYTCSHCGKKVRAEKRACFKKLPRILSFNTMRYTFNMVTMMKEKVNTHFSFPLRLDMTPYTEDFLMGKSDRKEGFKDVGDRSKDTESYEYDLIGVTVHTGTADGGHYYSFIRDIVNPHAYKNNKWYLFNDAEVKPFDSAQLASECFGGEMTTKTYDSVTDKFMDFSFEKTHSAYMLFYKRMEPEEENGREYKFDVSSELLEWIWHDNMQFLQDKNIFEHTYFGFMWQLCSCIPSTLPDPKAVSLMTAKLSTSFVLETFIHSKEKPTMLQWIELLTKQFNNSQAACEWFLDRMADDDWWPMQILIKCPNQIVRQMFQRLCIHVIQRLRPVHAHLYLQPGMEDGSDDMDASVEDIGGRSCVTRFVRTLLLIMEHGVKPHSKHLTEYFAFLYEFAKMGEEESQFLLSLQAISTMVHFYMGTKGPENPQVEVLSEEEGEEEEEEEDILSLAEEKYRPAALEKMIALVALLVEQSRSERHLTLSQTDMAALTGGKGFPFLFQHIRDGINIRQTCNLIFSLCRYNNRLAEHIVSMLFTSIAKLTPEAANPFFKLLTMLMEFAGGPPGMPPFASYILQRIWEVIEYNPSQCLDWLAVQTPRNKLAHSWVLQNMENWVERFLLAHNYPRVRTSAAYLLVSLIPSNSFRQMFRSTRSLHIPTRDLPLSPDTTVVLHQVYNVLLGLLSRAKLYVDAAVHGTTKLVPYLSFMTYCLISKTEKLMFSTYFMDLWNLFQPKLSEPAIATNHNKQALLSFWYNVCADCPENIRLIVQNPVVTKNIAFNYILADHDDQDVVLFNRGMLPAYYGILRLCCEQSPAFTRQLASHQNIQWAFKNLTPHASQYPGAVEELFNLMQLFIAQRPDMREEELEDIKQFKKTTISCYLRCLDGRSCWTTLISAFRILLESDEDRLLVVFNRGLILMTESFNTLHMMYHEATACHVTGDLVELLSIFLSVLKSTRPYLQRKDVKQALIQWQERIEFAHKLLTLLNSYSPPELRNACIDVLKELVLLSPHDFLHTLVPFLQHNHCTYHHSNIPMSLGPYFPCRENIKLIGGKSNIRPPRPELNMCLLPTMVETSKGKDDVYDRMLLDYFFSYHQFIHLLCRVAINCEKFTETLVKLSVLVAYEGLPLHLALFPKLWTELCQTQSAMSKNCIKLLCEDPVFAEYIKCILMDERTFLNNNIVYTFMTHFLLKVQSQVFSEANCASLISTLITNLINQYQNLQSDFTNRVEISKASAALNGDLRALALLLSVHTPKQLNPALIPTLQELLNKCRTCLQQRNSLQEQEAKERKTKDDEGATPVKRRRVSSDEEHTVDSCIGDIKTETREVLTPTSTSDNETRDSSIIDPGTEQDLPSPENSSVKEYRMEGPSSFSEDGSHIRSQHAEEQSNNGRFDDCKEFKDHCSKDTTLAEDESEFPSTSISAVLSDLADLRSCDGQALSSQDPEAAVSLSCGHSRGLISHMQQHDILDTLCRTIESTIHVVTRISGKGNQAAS

B1: irisin: secreted cleaved form of FNDC5; recombinant human/mouse irisin with C-terminal his tag produced in HEK293 cells (protein)
chain: DSPSAPVNVTVRHLKANSAVVSWDVLEDEVVIGFAISQQKKDVRMLRFIQEVNTTTRSCALWDLEEDTEYIVHVQAISIQGQSPASEPVLFKTPREAEKMASKNKDEVTMKE
modifications: left off: small tags and cut ends
notes: secreted cleaved form of FNDC5; recombinant human/mouse irisin with C-terminal his tag produced in HEK293 cells
TMT signal-to-noise ratio [1]: 39.5932 | irisin/adipsin TMT signal-to-noise ratio [1]: 0.585 | TMT signal-to-noise ratio [2]: 377.903 | irisin/adipsin TMT signal-to-noise ratio [2]: 0.346 | TMT signal-to-noise ratio [3]: 119.978 | irisin/adipsin TMT signal-to-noise ratio [3]: 0.438 | TMT signal-to-noise ratio [4]: 98.0506 | irisin/adipsin TMT signal-to-noise ratio [4]: 0.094 | TMT signal-to-noise ratio [5]: 2.132 | irisin/adipsin TMT signal-to-noise ratio [5]: 0.013 | TMT signal-to-noise ratio [6]: 249.388 | irisin/adipsin TMT signal-to-noise ratio [6]: 0.403 | TMT signal-to-noise ratio [7]: 851.066 | irisin/adipsin TMT signal-to-noise ratio [7]: 0.561
